Data taken from paper PMC7494816.
Each block holds one substance with its values, some of them ahead of it.

Legend:
[1] = target: 2:1:1 Vps75–Rtt109–(H3-H4) complex formed from co-expressed Vps75–Rtt109 (Saccharomyces cerevisiae | Xenopus laevis) (UniProt P53853); experiment: SEC-MALS; 20 μM co-expressed 2:1 Vps75–Rtt109 with 20 or 40 μM H3-H4 or H3DM-H4; Superdex 200 Increase 10/300 GL; 20 mM Tris–HCl pH 7.5, 300 mM NaCl, 0.5 mM TCEP
[2] = target: 2:1:1 Vps75–Rtt109–(H3-H4) complex, reconstituted from individually purified Vps75 and Rtt109 (Saccharomyces cerevisiae | Xenopus laevis) (UniProt P53853); experiment: AUC; sedimentation velocity; 0.5 or 1 equivalent of H3-H4 or H3DM-H4 titrated against Vps75–Rtt109 reconstituted at 2:2 or 2:1 (relative to 7.5 μM Vps75), with 2:2 mixes of Vps75 and histones for reference; 20 mM Tris pH 7.5, 150 mM NaCl, 0.5 mM TCEP, 20°C
[3] = target: co-expressed and co-purified 2:1 Vps75–Rtt109 complex (Saccharomyces cerevisiae) (UniProt P53853); experiment: SEC-MALS; 20 μM co-expressed 2:1 Vps75–Rtt109 with 20 or 40 μM H3-H4 or H3DM-H4; Superdex 200 Increase 10/300 GL; 20 mM Tris–HCl pH 7.5, 300 mM NaCl, 0.5 mM TCEP
[4] = target: Vps75–Rtt109 complex reconstituted at 2:1 from individually purified proteins (Saccharomyces cerevisiae) (UniProt P53853); experiment: AUC; sedimentation velocity; 0.5 or 1 equivalent of H3-H4 or H3DM-H4 titrated against Vps75–Rtt109 reconstituted at 2:2 or 2:1 (relative to 7.5 μM Vps75), with 2:2 mixes of Vps75 and histones for reference; 20 mM Tris pH 7.5, 150 mM NaCl, 0.5 mM TCEP, 20°C
[5] = target: Vps75–Rtt109 complex reconstituted at 2:2 from individually purified proteins (Saccharomyces cerevisiae) (UniProt P53853); experiment: as above; settings: scale: H3-H4 per Vps75 dimer

- stoichiometry N (copies of the 2:1:1 sub-complex (4:2:2)) [1]: 2
Substance: 2:1:1 Vps75–Rtt109–(H3-H4) complex formed from co-expressed Vps75–Rtt109 (from UniProt P53853 1-264; Q07794 1-436; P84233 1-136; P62799 1-103)

- stoichiometry N (copies of the 2:1:1 complex (4:2:2)) [2]: 2
Substance: 2:1:1 Vps75–Rtt109–(H3-H4) complex, reconstituted from individually purified Vps75 and Rtt109 (from UniProt P53853 1-264; Q07794 1-436; P84233 1-136; P62799 1-103)

- stoichiometry N (H3DM-H4 per 2:1 Vps75–Rtt109 (2:1:1)) [3]: 1
- stoichiometry N (H3DM-H4 per Vps75 dimer (printed 2:2:1)) [4]: 1
Substance: Xenopus laevis H3DM-H4 (H3 dimerization mutant C110E, L126A, I130A with H4), refolded (from UniProt P62799 1-103) (complex)

- stoichiometry N (H3-H4 per 2:1 Vps75–Rtt109 (2:1:1)) [3]: 1
- stoichiometry N [5]: 1
Substance: Xenopus laevis histones H3-H4 (wild type), refolded (from UniProt P84233 1-136; P62799 1-103) (complex)
